{
  "source": "patent US9056102B2",
  "about": "“VEGF-activated trail ligands” (The Regents of the University of California, priority 2005, dated 2015)",
  "key": {"[1]": {"test_system": "U87MG human glioblastoma cells", "experiment": "Potentiation of R2FasL by chemotherapeutic agents, resazurin cell viability assay", "format": "cell-based", "conditions": "72 hours drug (Bis VIII 1 μM, camptothecin 20 nM, etoposide 5 μM), then R2FasL 10 μL/well for 40 hours", "experimental": "U87MG human glioblastoma cells were plated in 96-well plates in 100 μL of complete medium with 10% fetal calf serum at 25,000 cells/well. Forty-eight hours later cells were treated with either bisindolylmaleimide VIII (Bis VIII, final concentration 1 μM), camptothecin (final concentration 20 nM), etoposide (final concentration 5 μM), or DMSO vehicle (1 μL/well). Bis VIII, camptothecin, and etoposide (all from Biomol) were dissolved in DMSO and added at 1 μL/well. After 72 hours of drug exposure, cells were treated with FLAG antibody affinity-purified R2FasL solution (10 μL/well), and incubated for an additional 40 hours. Cell viability and cytotoxicity were assayed using the resazurin assay and the LDG release assay, respectively, as described above."}, "[2]": {"test_system": "Jurkat E6.1 human T cells", "experiment": "Jurkat cell viability, resazurin (AlamarBlue) assay", "format": "cell-based", "procedure": "Conditioned medium (0.001, 0.01, 0.1, 1, or 10 μL) from Cos7 cells transfected with pFLAG/R1[D2]FasL vector was added in the absence or presence of rhVEGF-165 (final concentration 2 nM). Twenty-two hours later cell viability was assayed using the resazurin assay (AlamarBlue reagent from BioSource). Conversion of AlamarBlue substrate to product by viable cells was determined by adding 20 μL of AlamarBlue to each well and measuring absorbance at 540 nm and […]. Calculation of % conversion of substrate to product was performed according to the manufacturer's protocol.\nTo investigate which growth factors activate R1[D2]FasL the following experiment was performed. […] All growth factors were used at a final concentration of 10 nM, and were from Peprotech or R&D Systems. Nineteen hours later cell viability was assayed using the resazurin assay as described above.\nIn a similar experiment, the concentration of the growth factors tested was varied. […] Conditioned medium from Cos7 cells transfected with either pFLAG/R2FasL vector or empty pFLAG vector was added (1 μL/well), in the absence or presence of rhVEGF-165 or rmVEGF-165 at the final concentrations of 0.001, 0.01, 0.1, 1, and 10 nM. Eighteen hours later cell viability was assayed using the resazurin assay as described herein.\nTo determine the ED50 for hVEGF-165 on R1[D2]FasL the following experiment was performed. […] Conditioned medium from Cos7 cells transfected with pFLAG/R1[D2]FasL vector was added (2 μL/well), in the absence or presence of rhVEGF-165 at 0, 0.01, 0.1, 1, 10, 100, 1,000, or 10,000 nM. Nineteen hours later cell viability was assayed using the resazurin assay as described above.\nIn a similar experiment the ED50 for hVEGF-165 on R2FasL was determined. […] Conditioned medium from Cos7 cells transfected with pFLAG/R2FasL vector was added in the volumes indicated, in the absence or presence of rhVEGF-165 at the final concentrations of […], 0.2 and 2 nM. Eighteen hours later cell viability was assayed using the resazurin assay. The ED50 for rhVEGF-165 was between 20 pM and 200 pM (FIG. 21B)."}, "[3]": {"test_system": "T-47D human breast cancer cells", "experiment": "LDH release cytotoxicity assay in breast cancer cells", "format": "cell-based", "procedure": "Apoptosis and cytotoxicity was assayed by three assays: cell counting, FACS analysis of Annexin V positive cells, and LDH (lactate dehydrogenase) release. For cell counting of Jurkat cells, 100 uL of cell suspension was mixed with an equal volume of Trypan blue stain (0.4%), and kept at room temperature for 2 minutes. Live cells were counted using a hemocytometer in triplicate. Mean number of cells/visual field and SEM were calculated using InStat statistical software. For FACS analysis, the Annexin-V-Fluos kit from Roche was used according to the manufacturer's protocol. Briefly, after treatment with FlkFasL or control conditioned medium±VEGF-165 (2 nM, from Peprotech), Jurkat cells were pelleted and resuspended in 100 μL of Annexin-V-Fluos labeling solution (FITC-Annexin V plus propidium iodide) for 15 minutes at room temperature. FACS analysis was performed on a Becton Dickinson FACSCalibur™ using CellQuest Software, with gating to distinguish Annexin V-positive (apoptotic) versus negative cells, and propidium iodide-positive (i.e. necrotic) versus negative cells. The percent of the cell population that was apototic (Annexin-V-positive and propidium iodide-negative) was determined. […] 25 μL of supernatant in triplicate was mixed with LDH detection reagent, and LDH activity quantified by measuring absorbance at 492 nm. Mean and SEM was calculated using InStat statistical software. […]"}, "[4]": {"test_system": "T-47D human breast cancer cells", "experiment": "Cell death in breast cancer cells, photographed 24 hours after treatment", "format": "cell-based", "conditions": "25 μL conditioned medium plus 2 nM VEGF-165, 24 hours", "procedure": "T-47D human breast cancer cells were plated in 24-well plates (500,000 cells in 500 μl/well) and grown to confluence. Cells were treated with 25 μL/well of conditioned medium from Cos-7 cells transfected either with control plasmid pSV/Neo or plasmid FlkFasL. Cells were also treated with 2 nM VEGF-165 or without. Cells were photographed 24 hours after treatment."}, "Jurkat cells [5]": {"test_system": "Jurkat cells", "experiment": "Induction of apoptosis by FACS analysis of Annexin V-positive/propidium iodide-negative cells", "format": "cell-based, human", "procedure": "(§1) Apoptosis and cytotoxicity was assayed by three assays: cell counting, FACS analysis of Annexin V positive cells, and LDH (lactate dehydrogenase) release. For cell counting of Jurkat cells, 100 uL of cell suspension was mixed with an equal volume of Trypan blue stain (0.4%), and kept at room temperature for 2 minutes. Live cells were counted using a hemocytometer in triplicate. Mean number of cells/visual field and SEM were calculated using InStat statistical software. For FACS analysis, the Annexin-V-Fluos kit from Roche was used according to the manufacturer's protocol. […] The percent of the cell population that was apototic (Annexin-V-positive and propidium iodide-negative) was determined. […] 25 μL of supernatant in triplicate was mixed with LDH detection reagent, and LDH activity quantified by measuring absorbance at 492 nm. Mean and SEM was calculated using InStat statistical software.\nJurkat cells were plated in 24-well plates (500,000 cells in 500 μl/well) and were treated with either 1 μL/well or 5 μL/well of conditioned medium obtained from Cos-7 cells transfected either with control plasmid pSV/Neo or plasmid pBJ/FlkFasL. […] Induction of apoptosis was assessed by FACS analysis of FITC-Annexin V-positive/propidium-iodide negative cells."}, "Jurkat cells [6]": {"test_system": "Jurkat cells", "experiment": "Jurkat cell killing, viable cell counting after trypan blue staining", "format": "cell-based, human", "procedure": "as §1\nJurkat cells were plated in 24-well plates (500,000 cells in 500 μl/well) and were treated with increasing volumes of conditioned medium obtained from Cos-7 cells transfected either with either control plasmid pSV/Neo or plasmid pBJ/FlkFasL. […] Thirty-two hours later viable cells were counted after trypan blue staining. […]"}},
  "note": "“Also recorded” adds a separate entry of the source.",
  "data": [
    {"molecule": "Cn1cc(C2=C(c3cn(CCCN)c4ccccc34)C(=O)NC2=O)c2ccccc21", "note": "[BisVIII, bisindolylmaleimide VIII]", "values": [
      {"measurement": "potentiation of R2FasL apoptotic activity (cell viability)", "setting": "[1]", "value": "Potentiation of R2FasL apoptotic activity"}
    ]},
    {"molecule": "COc1cc([C@@H]2c3cc4c(cc3[C@@H](O[C@@H]3O[C@@H]5CO[C@@H](C)O[C@H]5[C@H](O)[C@H]3O)[C@H]3COC(=O)[C@H]23)OCO4)cc(OC)c1O", "note": "[etoposide]", "values": [
      {"measurement": "potentiation of R2FasL apoptotic activity (cell viability)", "setting": "[1]", "value": "Potentiation of R2FasL apoptotic activity"}
    ]},
    {"molecule": "R1[D2]FasL: Second domain of human VEGFR1 (amino acids 129 to 230) fused via ARGTS linker to hFasL amino acids 139 to 281 (protein, FLAG tag, preprotrypsin leader) MSALLILALVGAAVADYKDDDDKLAAASDTGRPFVEMYSEIPEIIHMTEGRELVIPCRVTSPNITVTLKKFPLDTLIPDGKRIIWDSRKGFIISNATYKEIGLLTCEATVNGHLYKTNYLTHRQTNTIIARGTSEKKELRKVAHLTGKSNSRSMPLEWEDTYGIVLLSGVKYKKGGLVINETGLYFVYSKVYFRGQSCNNLPLSHKVYMRNSKYPQDLVMMEGKMMSYCTTGQMWARSSYLGAVFNLTSADHLYVNVSELSLVNFEESQTFFGLYKL", "values": [
      {"measurement": "induction of apoptosis (cell viability)", "setting": "[2]; 0.001-10 μL conditioned medium, absence or presence of 2 nM rhVEGF-165, 22 hours", "value": "induces apoptosis in a VEGF-dependent manner"},
      {"measurement": "activation by growth factors (cell viability)", "setting": "[2]; 2 μL/well conditioned medium, rhVEGF-165, rmVEGF-164, rhVEGF-121, rhVEGF-165/rhPlGF-129 heterodimer, rhPlGF-129, each 10 nM, 19 hours", "value": "activated by all growth factors tested"}
    ]},
    {"molecule": "FlkFasL: Fusion of mouse Flk-1 (VEGFR-2) signal sequence and Ig-like domains 1-3, linker, human FasL amino acids 139-281; SEQ ID NO:22 (protein) MESKALLAVALWFCVETRAASVGLPGDFLHPPKLSTQKDILTILANTTLQITCRGQRDLDWLWPNAQRDSEERVLVTECGGGDSIFCKTLTIPRVVGNDTGAYKCSYRDVDIASTVYVYVRDYRSPFIASVSDQHGIVYITENKNKTVVIPCRGSISNLNVSLCARYPEKRFVPDGNRISWDSEIGFTLPSYMISYAGMVFCEAKINDETYQSIMYIVVVVGYRIYDVILSPPHEIELSAGEKLVLNCTARTELNVGLDFTWHSPPSKSHHKKIVNRDVKPFPGTVAKMFLSTLTIESVTKSDQGEYTCVASSGRMIKRNRTFVRVHTKPFIAFGSARGTSEKKELRKVAHLTGKSNSRSMPLEWEDTYGIVLLSGVKYKKGGLVINETGLYFVYSKVYFRGQSCNNLPLSHKVYMRNSKYPQDLVMMEGKMMSYCTTGQMWARSSYLGAVFNLTSADHLYVNVSELSLVNFEESQTFFGLYKL", "values": [
      {"measurement": "cytotoxicity (LDH release) with exogenous VEGF", "setting": "[3]; 25 μL conditioned medium plus 2 nM VEGF-165, 48 hours", "value": "drastic increase in cytotoxicity"},
      {"measurement": "cytotoxicity (LDH release), endogenous VEGF only", "setting": "[3]; 25 μL conditioned medium, no exogenous VEGF, 48 hours", "value": "induced cytotoxicity"},
      {"measurement": "cell death with exogenous VEGF", "setting": "[4]", "value": "drastic increase in cell death; also recorded: drastically increased cell death"},
      {"measurement": "induction of apoptosis (Annexin V-positive/propidium iodide-negative cells)", "setting": "Jurkat cells [5]; 1 or 5 μL conditioned medium, with or without 2 nM VEGF-165, 60 minutes", "value": "induction of apoptosis by FlkFasL in a VEGF-dependent manner"},
      {"measurement": "induction of apoptosis in the absence of VEGF", "setting": "Jurkat cells [5]; conditioned medium in the absence of VEGF", "value": "did not increase apoptotic induction"},
      {"measurement": "killing of Jurkat cells as function of VEGF amount", "setting": "Jurkat cells [6]; 25 μL/well conditioned medium, varying amounts of VEGF-165, 24 hours", "value": "dependent on the amount of VEGF"},
      {"measurement": "killing of Jurkat cells (viable cells per hemocytometer field)", "setting": "Jurkat cells [6]; increasing volumes of Cos-7 conditioned medium, with or without 2 nM VEGF-165, 32 hours", "value": "killing of Jurkat cells by FlkFasL in a VEGF-dependent manner"}
    ]}
  ]
}
